Assay results as given in US20070087000A1 (Pfizer, published 2007).
Values belong to the binder of their own block, whether it stands above or below them.

Legend:
[1] = target: T1, Human GDF-8 (mature, recombinant dimer), biotinylated in the ELISAs (human, UniProt O14793 267-375, biotinylated in the direct and competition ELISAs (sites not given)); test: competition ELISA: RK35 inhibits binding of biotinylated GDF-8 to immobilized ActRIIB-Fc; competition ELISA, biotinylated GDF-8 to immobilized ActRIIB-Fc
T1 construct: It was not biotinylated in the reporter assay; also called myostatin; growth and differentiation factor-8

[2] = target: T1, Human GDF-8 (mature, recombinant …); test: competition ELISA: soluble ActRIIB-Fc as competitor of biotinylated GDF-8 binding to immobilized ActRIIB-Fc

IC50 [1]: ~2.5 nM
B1: RK35 anti-GDF-8 mouse monoclonal antibody (antibody, V domains shown)
VH: EVQLVESGGGLVKPGGSLKLSCAASGFTFSSYAMSWVRQTPEKRLEWVATISSGGSYTSYPDSVKGRFTISRDNAKNTLYLQMSSLRSEDTAMYYCARQDYAMNYWGQGTSVTVSS
VL: DIEMTQSHKFMSTSVGDRVSITCKASQDVSTAVAWYQQKPGQSPKLLLYSASYRYTGVPDRFTGSGSGTDFTFTISSVQAEDLAVYYCQQHYSTPWTFGGGTKLEIK
notes: Murine monoclonal antibody from a hybridoma (myostatin knockout BALB/c mice immunised with recombinant GDF-8 dimer); also called RK35 mAb; murine RK35

IC50 (read off the curve) [2]: ~0.3 nM
B2: Recombinant ActRIIB-Fc chimera (human ActRIIB fused to the human IgG constant region, Fc) (Fc fusion, UniProt Q13705 19-137, looked up)
chain: SGRGEAETRECIYYNANWELERTNQSGLERCEGEQDKRLHCYASWRNSSGTIELVKKGCWLDDFNCYDRQECVATEENPQVYFCCCEGNFCNERFTHLPEAGGPEVTYEPPPTAPTLLT
notes: extracellular domain; The same protein was used immobilised and as the soluble positive control; also called soluble ActRIIB; soluble ActRIIB-Fc receptor; not shown: human IgG1 Fc region
